Values quoted from earlier work as cited in paper PMC11087511.

Legend:
[1] = target: factor Xa within prothrombinase (Homo sapiens) (UniProt P00742); conditions: cited from earlier work
factor Xa (Homo sapiens) = factor Xa (Homo sapiens) (UniProt P00742); conditions: cited from earlier work
Sequence of factor Xa (Homo sapiens) (P00742 235-488): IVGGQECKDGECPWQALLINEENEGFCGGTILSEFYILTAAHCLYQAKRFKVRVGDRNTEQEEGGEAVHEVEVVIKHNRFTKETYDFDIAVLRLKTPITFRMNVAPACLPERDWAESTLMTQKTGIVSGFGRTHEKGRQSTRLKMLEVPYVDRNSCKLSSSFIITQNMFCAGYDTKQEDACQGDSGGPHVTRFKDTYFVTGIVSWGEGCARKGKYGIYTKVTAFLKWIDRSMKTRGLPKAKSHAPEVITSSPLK

Sequence of Tick anticoagulant peptide (TAP) (P17726 whole entry): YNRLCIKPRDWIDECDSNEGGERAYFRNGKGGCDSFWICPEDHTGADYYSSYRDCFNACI
Sequence of factor Xa within prothrombinase (Homo sapiens) (P00742 41-179, chain 1 of 2): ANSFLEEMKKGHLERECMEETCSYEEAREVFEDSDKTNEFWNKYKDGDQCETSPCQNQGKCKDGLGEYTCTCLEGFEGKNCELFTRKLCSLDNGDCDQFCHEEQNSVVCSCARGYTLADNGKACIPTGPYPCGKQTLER
Sequence of factor Xa within prothrombinase (Homo sapiens) (P00742 235-488, chain 2 of 2): as the sequence (P00742 235-488) above

Question: With “Tick anticoagulant peptide (TAP) (from UniProt P17726)” as the substance, how does the Ki [1] read?
Answer: 0.0053 nM

Question: What about the Ki (factor Xa (Homo sapiens)) of the same substance?
Answer: 0.18 nM
